Read-outs that look alike come from different tables or passages of the source.
B1: HER3MS00118 (VHH)
VHH: EVQLVESGGGLVQPGGSLRLSCAASGSIGGLNAMAWYRQAPGKERELVAGIFGVGSTRYADSVKGRFTISRDNSKNTVYLQMNSLRAEDTAVYYCRMSSVTRGSSDYWGQGTLVTVSS
notes: 17B05 second round, S84A; also called HER3MS0118
B2: HER3MS00119 (VHH)
VHH: EVQLVESGGGLVQPGGSLRLSCAASGSIGGLNAMAWYRQAPGKERELVAGIFGVGSTRYADSVKGRFTISRDNSKNTVYLQMNSLRPEDTAVYYCRMSSVTRGSSDYWGQGTLVTVSS
notes: 17B05 second round, S84P (final variant); also called HER3MS0119
B3: HER3MS00121 (VHH)
VHH: DVQLVESGGGLVQPGGSLRLSCAASGSIGGLNAMAWYRQAPGKERELVAGIFGVGSTRYADSVKGRFTISRDNSKNTVYLQMNSLRPEDTAVYYCRMSSVTRGSSDYWGQGTLVTVSS
notes: 17B05 second round, E1D, S84P (final variant for N-terminal use); also called HER3MS0121
B4: HER3MS00120 (VHH)
VHH: DVQLVESGGGLVQPGGSLRLSCAASGSIGGLNAMAWYRQAPGKERELVAGIFGVGSTRYADSVKGRFTISRDNSKNTVYLQMNSLRAEDTAVYYCRMSSVTRGSSDYWGQGTLVTVSS
notes: 17B05 second round, E1D, S84A; also called HER3MS0120
B5: HER3MS00123 (VHH)
VHH: EVQLVESGGGLVQPGGSLRLSCAASGSIFRINAMAWYRQAPGKQRELVAEITAGGSTNYADSVKGRFTISRDNSWNTLYLQMNSLRPEDTAVYYCNLDHYTTWDRRSAYWGQGTLVTVSS
B6: HER3MS00128 (VHH)
VHH: DVQLVESGGGLVQPGGSLRLSCAASGSIFRINAMAWYRQAPGKQRELVAEITAGGSTNYADSVKGRFTISRDNSWNTLYLQMNSLRAEDTAVYYCNLDHYTTWDRRSAYWGQGTLVTVSS
B7: HER3MS00124 (VHH)
VHH: EVQLVESGGGLVQPGGSLRLSCAASGSIFRINAMAWYRQAPGKQRELVAEITAGGSTNYADSVKGRFTISRDNSWNTLYLQMNSLRAEDTAVYYCNLDHYTTWDRRSAYWGQGTLVTVSS
B8: HER3MS00127 (VHH)
VHH: DVQLVESGGGLVQPGGSLRLSCAASGSIFRINAMAWYRQAPGKQRELVAEITAGGSTNYADSVKGRFTISRDNSWNTLYLQMNSLRPEDTAVYYCNLDHYTTWDRRSAYWGQGTLVTVSS

Tests used:
human HER1 = target: T1, human HER1 (human, UniProt P00533 25-1210); test: FACS CHO-HER1, 5 µg/ml
T1 construct: also called EGFR; ErbB1

human HER4 = human HER4 (human, UniProt Q15303 26-1308); test: FACS CHO-HER4, 5 µg/ml
Chain of human HER4 (Q15303 26-1308 limits assumed): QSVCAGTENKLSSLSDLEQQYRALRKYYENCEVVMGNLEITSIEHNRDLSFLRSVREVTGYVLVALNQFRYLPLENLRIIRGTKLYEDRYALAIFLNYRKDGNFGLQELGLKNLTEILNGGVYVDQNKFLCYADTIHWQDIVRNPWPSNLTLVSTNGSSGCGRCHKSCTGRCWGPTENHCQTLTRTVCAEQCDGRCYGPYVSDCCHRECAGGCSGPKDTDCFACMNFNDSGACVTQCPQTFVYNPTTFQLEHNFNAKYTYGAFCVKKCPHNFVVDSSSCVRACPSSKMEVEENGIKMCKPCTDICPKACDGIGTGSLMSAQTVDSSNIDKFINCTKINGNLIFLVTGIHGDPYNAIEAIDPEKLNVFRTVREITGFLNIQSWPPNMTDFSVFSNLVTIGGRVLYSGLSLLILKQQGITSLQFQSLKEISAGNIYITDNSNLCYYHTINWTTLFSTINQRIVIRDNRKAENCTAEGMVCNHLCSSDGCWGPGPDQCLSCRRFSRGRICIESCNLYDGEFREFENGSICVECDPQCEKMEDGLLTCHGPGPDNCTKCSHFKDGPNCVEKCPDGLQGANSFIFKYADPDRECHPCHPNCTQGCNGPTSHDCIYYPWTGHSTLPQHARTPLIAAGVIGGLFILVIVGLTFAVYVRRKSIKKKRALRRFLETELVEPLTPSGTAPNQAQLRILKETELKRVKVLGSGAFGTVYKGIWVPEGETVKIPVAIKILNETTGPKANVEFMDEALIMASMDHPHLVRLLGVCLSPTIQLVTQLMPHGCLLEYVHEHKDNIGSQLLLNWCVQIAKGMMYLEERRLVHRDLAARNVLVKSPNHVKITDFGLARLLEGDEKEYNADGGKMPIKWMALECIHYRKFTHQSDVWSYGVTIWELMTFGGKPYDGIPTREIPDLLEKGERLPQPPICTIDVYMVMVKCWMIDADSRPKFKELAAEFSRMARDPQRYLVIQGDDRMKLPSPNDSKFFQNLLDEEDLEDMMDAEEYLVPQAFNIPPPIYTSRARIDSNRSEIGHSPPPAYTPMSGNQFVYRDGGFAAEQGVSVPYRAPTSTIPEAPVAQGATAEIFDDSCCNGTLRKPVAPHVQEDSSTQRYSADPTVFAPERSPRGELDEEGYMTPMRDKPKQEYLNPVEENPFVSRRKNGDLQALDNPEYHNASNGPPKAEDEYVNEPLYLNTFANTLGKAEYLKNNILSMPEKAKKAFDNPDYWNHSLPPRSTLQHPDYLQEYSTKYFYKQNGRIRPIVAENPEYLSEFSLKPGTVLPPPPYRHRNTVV

human HER2 = target: T2, human HER2 (human, UniProt P04626 23-1255); test: FACS CHO-HER2, 5 µg/ml
T2 construct: also called hHER2

[1] = target: T3, human HER3-Fc (R&D Systems, 348-RB) (human, UniProt P21860 20-643); test: HRG competition alphascreen
T3 construct: Bought; also called hHER3-Fc; Fc-HER3; Fc part of the bought chimera not given, not described

hHER3 full length [2] = target: T4, hHER3 full length (human, UniProt P21860 20-1342); test: cell-based or functional assay
[3] = target: T5, hHER3 ECD (human HER3 extracellular domain) (human, UniProt P21860 20-643); test: SPR off rate on HER3-ECD
T5 construct: also called recombinant HER3-ECD

[4] = target: T5, hHER3 ECD (human HER3 extracellular …); test: SPR off rate on HER3-ECD; remark: listed apart in the source
hHER3 full length [5] = target: T4, hHER3 full length; test: cell-based or functional assay; remark: listed apart in the source
[6] = target: T3, human HER3-Fc (R&D Systems, 348-RB); test: 34C07 competition alphascreen

Molecule	IC50 [1]	IC50 pHER3 blocking, HRG stimulated MCF7 (hHER3 full length [2])	koff [3]	koff [4]	IC50 pHER3 blocking, MCF7 (hHER3 full length [5])	IC50 [6]	also measured
Anti-HER2 pAb (R&D Systems AF1129) (antibody)							MCF (human HER1): 323; MCF (human HER4): 578; MCF (human HER2): 41000
Anti-HER1 pAb (R&D Systems AF231) (antibody)							MCF (human HER1): 28200; MCF (human HER4): 418; MCF (human HER2): 888
Anti-HER4 pAb (R&D Systems AF1131) (antibody)							MCF (human HER1): 584; MCF (human HER4): 17000; MCF (human HER2): 932
B1	0.6 nM	2.69e-09 M	0.00018 s⁻¹				
B2	0.79 nM	1.7e-09 M	0.00018 s⁻¹				
B3	0.55 nM	3.53e-09 M	0.00018 s⁻¹				
B4	0.75 nM	4.28e-09 M	0.00019 s⁻¹				
B5				0.00046 s⁻¹	3.09e-08 M	7.6 nM	
B6				0.00046 s⁻¹	4.05e-08 M	6.7 nM	
B7				0.00045 s⁻¹	3.05e-08 M	7.1 nM	
B8				0.00046 s⁻¹	3.88e-08 M	8.5 nM	

Source: patent publication US20130136748A1 (Ablynx, published 2013)
